Results published in patent US20240400635A1 (Novo Nordisk, published 2024).

Legend:
[1] = target: human GLP-1 receptor (human, UniProt P43220 24-463); assay: cell-based or functional assay
[2] = target: FGF receptor/BKL complex (human, UniProt Q86Z14 1-1044); assay: cell-based or functional assay
Sequence of FGF receptor/BKL complex (Q86Z14 whole entry, one chain of several): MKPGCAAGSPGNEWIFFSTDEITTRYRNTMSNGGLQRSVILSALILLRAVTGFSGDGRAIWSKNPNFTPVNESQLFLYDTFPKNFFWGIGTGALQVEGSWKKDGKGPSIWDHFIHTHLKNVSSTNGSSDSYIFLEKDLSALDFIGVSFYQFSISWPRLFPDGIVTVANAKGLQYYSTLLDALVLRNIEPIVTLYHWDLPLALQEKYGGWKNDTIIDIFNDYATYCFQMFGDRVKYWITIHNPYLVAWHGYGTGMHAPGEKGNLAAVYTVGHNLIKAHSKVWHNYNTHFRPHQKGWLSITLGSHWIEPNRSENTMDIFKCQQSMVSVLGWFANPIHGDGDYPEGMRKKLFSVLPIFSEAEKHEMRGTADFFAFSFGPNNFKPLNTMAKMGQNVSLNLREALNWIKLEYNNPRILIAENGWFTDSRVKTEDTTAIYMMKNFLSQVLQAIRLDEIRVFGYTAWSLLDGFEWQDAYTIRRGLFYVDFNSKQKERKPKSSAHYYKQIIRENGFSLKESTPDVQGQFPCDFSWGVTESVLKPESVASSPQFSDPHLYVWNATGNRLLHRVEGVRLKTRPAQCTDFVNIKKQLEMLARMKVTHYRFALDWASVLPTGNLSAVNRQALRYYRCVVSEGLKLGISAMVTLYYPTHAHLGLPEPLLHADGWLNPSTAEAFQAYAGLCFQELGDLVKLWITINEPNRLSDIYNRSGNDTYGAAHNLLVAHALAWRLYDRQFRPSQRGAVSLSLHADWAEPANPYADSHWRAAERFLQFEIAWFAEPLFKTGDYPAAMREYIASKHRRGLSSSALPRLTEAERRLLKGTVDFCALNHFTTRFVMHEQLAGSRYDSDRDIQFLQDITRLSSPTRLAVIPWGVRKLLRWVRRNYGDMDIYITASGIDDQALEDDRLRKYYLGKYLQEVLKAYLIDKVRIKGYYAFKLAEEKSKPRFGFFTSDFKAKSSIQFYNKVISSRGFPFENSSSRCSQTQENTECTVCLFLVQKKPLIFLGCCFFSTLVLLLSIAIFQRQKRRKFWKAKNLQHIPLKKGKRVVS

Binder	GLP-1 receptor potency [EC50] pM 0% HSA [1] [pM]	GLP-1 receptor potency [EC50] pM 1% HSA [1] [pM]	FGF1 receptor potency [EC50] nM 0.1% HSA [2] [nM]	FGF21 receptor potency [EC50] nM 0% HSA [2] [nM]
S{Beta-27}-[2-[2-[[2-[2-[2-[[2-[2-[2-[[(4S)-4-carboxy-4-(17-carboxyheptadecanoyl-amino)butanoyl]amino]ethoxy]ethoxy]acetyl]amino]ethoxy]ethoxy]acetyl]amino]-eth … (ligand, Cys27 of the GLP-1 part (GLP-1(7-37) numbering; residue 21 of the chain) S-alkylated with substituent Chem. 7) HGEGTFTSDVSSYLEEQAAKCFIAWLVKGGGGAQPGAQPGAQPGAQPGAQPGAQPGAQPGAQPGAQPGAQPGAQPGAQPGAQPGAQPGAQPGAQPAHPIPDSSPLLQFGGQVRQRYLYTDDAQQTEAHLEIREDGTVGGAADQSPESLLQLKALKPGVIQILGVKTSRFLCQRPDGALYGSLHFDPEACSFRELLLEDGYNVYQSEAHGLPLHLPGQKSPHRDPAPRGPARFLPLPGLPPALPEPPGILAPQPPDVGSSDPLSLVGGSQGRSPSYES	9.5	103	1.14	0.47
S{Beta-27}-[2-[2-[[2-[2-[2-[[2-[2-[2-[[(4S)-4-carboxy-4-(17-carboxyheptadecanoyl-amino)butanoyl]amino]ethoxy]ethoxy]acetyl]amino]ethoxy]ethoxy]acetyl]amino]-eth … (ligand, Cys27 of the GLP-1 part (GLP-1(7-37) numbering; residue 21 of the chain) S-alkylated with substituent Chem. 7) HGEGTFTSDVSSYLEEQAAKCFIAWLVKGGGGAQPGAQPGAQPGAQPGAQPGAQPGAQPGAQPAHPIPDSSPLLQFGGQVRQRYLYTDDAQQTEAHLEIREDGTVGGAADQSPESLLQLKALKPGVIQILGVKTSRFLCQRPDGALYGSLHFDPEACSFRELLLEDGYNVYQSEAHGLPLHLPGQKSPHRDPAPRGPARFLPLPGLPPALPEPPGILAPQPPDVGSSDPLSLVGGSQGRSPSYAS	15.7	106	0.45	0.24
S{Beta-27}-[2-[2-[[2-[2-[2-[[2-[2-[2-[[(4S)-4-carboxy-4-(17-carboxyheptadecanoyl-amino)butanoyl]amino]ethoxy]ethoxy]acetyl]amino]ethoxy]ethoxy]acetyl]amino]-eth … (ligand, Cys27 of the GLP-1 part (GLP-1(7-37) numbering; residue 21 of the chain) S-alkylated with substituent Chem. 7) HGEGTFTSDVSSYLEEQAAKCFIAWLVKGGGGAQPGAQPGAQPGAQPGAQPGAQPGAQPGAQPAHPIPDSSPLLQFGGQVRQRYLYTDDAQQTEAHLEIREDGTVGGAADQSPESLLQLKALKPGVIQILGVKTSRFLCQRPDGALYGSLHFDPEACSFRELLLEDGYNVYQSEAHGLPLHLPGQKSPHRDPAPRGPARFLPLPGLPPALPEPPGILAPQPPDVGSSDPLSLVGGSQGRSPSYES	9.8	66.6	0.87	0.41

Now from value to binder:

GLP-1 receptor potency [EC50] pM 0% HSA [1] [pM]	GLP-1 receptor potency [EC50] pM 1% HSA [1] [pM]	FGF1 receptor potency [EC50] nM 0.1% HSA [2] [nM]	FGF21 receptor potency [EC50] nM 0% HSA [2] [nM]	Binder
28.2	222	0.57	0.32	[8G, 22E, 26R, 36G]GLP-1(7-37)-(GAQP)x2, … (ligand, Cys of the spacer (residue 40 of the chain) S-alkylated with substituent Chem. 7) HGEGTFTSDVSSYLEEQAAREFIAWLVKGGGGAQPGAQPCGAQPAHPIPDSSPLLQFGGQVRQRYLYTDDAQQTEAHLEIREDGTVGGAADQSPESLLQLKALKPGVIQILGVKTSRFLCQRPDGALYGSLHFDPEACSFRELLLEDGYNVYQSEAHGLPLHLPGQKSPHRDPAPRGPARFLPLPGLPPALPEPPGILAPQPPDVGSSDPLSLVGGSQGRSPSYAS
9.8	203	1.42	0.67	{S27-[(28S)-(28,46-Dicarboxy-2,7,16,25,30-pentaoxo-9,12,18,21-tetraoxa-3,6,15,24,29-pentaazahexatetracontan-1-yl)]-[Gly8,36,Glu22,Cys27]-GLP-1(human)-(7-37)-pep … (ligand, Cys27 of the GLP-1 part (GLP-1(7-37) numbering; residue 21 of the chain) S-alkylated with (28S)-(28,46-Dicarboxy-2,7,16,25,30-pentaoxo-9,12,18,21-tetraoxa-3,6,15,24,29-pentaazahexatetracontan-1-yl) (substituent Chem. 7)) HGEGTFTSDVSSYLEEQAAKCFIAWLVKGGGGAQPGAQPGAQPGAQPGAQPGAQPGAQPGAQPGAQPGAQPGAQPGAQPGAQPGAQPGAQPGAQPGAQPGAQPGAQPGAQPGAQPGAQPGAQPGAQPGAQPGAQPGAQPGAQPGAQPGAQPGAQPGAQPAHPIPDSSPLLQFGGQVRQRYLYTDDAQQTEAHLEIREDGTVGGAADQSPESLLQLKALKPGVIQILGVKTSRFLCQRPDGALYGSLHFDPEACSFRELLLEDGYNVYQSEAHGLPLHLPGQKSPHRDPAPRGPARFLPLPGLPPALPEPPGILAPQPPDVGSSDPLSLVGGSQGRSPSYES
29.5	450	18	0.22	[8G, 22E, 26R, 36G]GLP-1(7-37)-(GAQP)x2, … (ligand, Cys of the spacer (residue 40 of the chain) and Cys180 of the FGF21 part (FGF21(1-181) numbering; residue 229 of the chain) each S-alkylated with substituent Chem. 7) HGEGTFTSDVSSYLEEQAAREFIAWLVKGGGGAQPGAQPCGAQPGAQPAHPIPDSSPLLQFGGQVRQRYLYTDDAQQTEAHLEIREDGTVGGAADQSPESLLQLKALKPGVIQILGVKTSRFLCQRPDGALYGSLHFDPEACSFRELLLEDGYNVYQSEAHGLPLHLPGQKSPHRDPAPRGPARFLPLPGLPPALPEPPGILAPQPPDVGSSDPLSLVGPSQGRSPSYCSHGEGTFTSDVSSYLEEQAAREFIAWLVKGGGGAQPGAQPCGAQPGAQPAHPIPDSSPLLQFGGQVRQRYLYTDDAQQTEAHLEIREDGTVGGAADQSPESLLQLKALKPGVIQILGVKTSRFLCQRPDGALYGSLHFDPEACSFRELLLEDGYNVYQSEAHGLPLHLPGQKSPHRDPAPRGPARFLPLPGLPPALPEPPGILAPQPPDVGSSDPLSLVGPSQGRSPSYCS
92.3	394	1.36	0.19	[8G, 22E, 36G]GLP-1(7-37)-(GAQP)x2, … (ligand, Cys of the spacer (residue 40 of the chain) S-alkylated with substituent Chem. 7) HGEGTFTSDVSSYLEEQAAKEFIAWLVKGGGGAQPGAQPCGAQPGAQPAHPIPDSSPLLQFGGQVRQRYLYTDDAQQTEAHLEIREDGTVGGAADQSPESLLQLKALKPGVIQILGVKTSRFLCQRPDGALYGSLHFDPEACSFRELLLEDGYNVYQSEAHGLPLHLPGQKSPHRDPAPRGPARFLPLPGLPPALPEPPGILAPQPPDVGSSDPLSLVGGSQGRSPSYAS
